Source: the supplement of paper PMC12764529
± gives the half width of the 95% confidence interval.

Test: folding stability dG unfold from chymotrypsin proteolysis; higher = more stable
How it was run: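 Sequencing followed digestion of designed mini-proteins with trypsin and chymotrypsin, each at 11 concentrations in threefold dilutions together with a no-protease condition. The mini-proteins were under 80 residues, had no cysteine, sat in a PA-tagged cDNA display construct, and were kept only if AlphaFold2 dimer inter-PAE was above 15. From the counts, Bayesian fitting gave K50, and unfolding free energy was derived against a sequence-predicted unfolded-state K50 and a shared folded-state K50, per protease or combined.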

Sequence	folding stability dG unfold [kcal/mol]
SAGGIEELAKALGIEEVEVTSIDPETREVTVRVRVRGPDGEERTLTVKIRLEPAPPPVRTFSEEELKSSAGG [r13_608_TrROS_Hall]	1.06 ± 0.04
SAMKEGEEYEPVEKKKITIKNKKTNKTIEIEVVRNKKTNKYIVKITTKDGKKIEIVVSKEELEKLLKKLSAG [r14_240_TrROS_Hall]	3.08 ± 0.17
SAGGSAKMVLVKIKVEGMSVEEVKKLLEEAGAKVVKIDEEKKVIIVEVSPEKAEELAKKLGFEVEVSAGGSA [r15_731_TrROS_Hall]	3.42 ± 0.11
SGMMRTIVLKIPIEEARKLLGDPNKPVSEEELKALVEKLAKEKGLDVEEIKVEKLPDGTYVVTVLVPDLGSA [r9_52_JUSTAS]	4.12 ± 0.076
SAKLAKELAEELAKEILPKFPNIKAVKVEVEPLGDYAIATIIWEKENGKPIISKAIIEKNKKILKVDISSAG [r14_719_TrMRF]	1.26 ± 0.043
SAGGMVKLTVYETPDSYTVTIDLGDKPYTIPVPPGLSPEEAAARAVEELQKAFPDEEVVVESVEYVARSAGG [r13_884_JUSTAS]	1.24 ± 0.086
SAGGSAGGSAGPGLSITTTITTTTPAKLPNGTAPLRTTTTTIITELKPADPNNPVILANTSAGGSAGGSAGG [r11_236_JUSTAS]	0.278 ± 0.069
SAGGSAGGSAGIRLDSLEEALKYIRKNFPPGRTVEIRVYDGDKPVEITVQVDENGDIKIVSAGGSAGGSAGG [r17_69_TrROS]	3.227 ± 0.02
SAGGSAGGSAGGPKAPGDKAVPATVEVRVTEYAVVPGLGEKLEKLPEKTFKATFVFFNKSAGGSAGGSAGGS [r10_122_TrMRF]	0.611 ± 0.11
SAGSSMLDSLTVDTEVTLDPAKGTVLVKTTTTLPDGTVTRTVTTVTVEPLNPPPPPPPRFDPRTGEALESAG [r5_816_JUSTAS]	0.207 ± 0.15
SAGGSGMTVEVSVDPSTGTIRIKIKYGDKEYEVTAPVTRLPDGTYAVELKISAPNGPLLETKEITLPLSAGG [r13_59_JUSTAS]	1.76 ± 0.024
SAGGSEGMTVTELVKPPDSDEVLYVATDSAGNTFTLPGSLVKEALENGKTVEAPRPDGTAATLVLRSAGGSA [r2_301_JUSTAS]	3.5 ± 0.2
SAGKIKVYYDPKLGRIIEIPLPNGKRIRIYLPKNKLIIVAEDPEGNKAIPIEIETKIGDIIKIIKEIAGSAG [r5_820_TrMRF]	3.57 ± 0.11
SAGGSAMIVTEDPNGVLTTTENGKVTTTTVTPVPRPDPFSDKTFTEYVVTTTTTPVAPSPITPNTLSAGGSA [r15_515_JUSTAS]	-0.0422 ± 0.081
SAGGSAGGSKPEIRKIKIYTKEGGKKIIPVNGTVIEIDGKKYKVKPNDKIKVPKNVKKIEPEGSAGGSAGGS [r12_779_TrMRF]	0.153 ± 0.19
SAGGSAGGSAGPVKTVEVEIPGMSEEELLALLPPGVKRVEIEREEVEPGRVRLRIKVYEESAGGSAGGSAGG [r11_1002_TrROS_Hall]	1.3 ± 0.051

Sequence	folding stability dG unfold [kcal/mol]
SAGGGDLEVELVEEREFTFPDGLRRRLLVVRFPDGFLAIPVYVRPPGGGWRLLARFVLRIGPPRPEEGSAGG [r13_494_TrMRF]	4.29 ± 0.043
SAGGGEKWKIKFKDAEAYINAPEGKVEIVPPDGSKITIDFPPDIPPEVVAKLLAEELGFDEAEIEPVESAGG [r13_852_TrMRF]	0.357 ± 0.13
SAGGGSVTVSLEGNTTYVRISREDGPERTYTFPQPNGEPLTFTEAPGRPGLITITRPATGEPVVLALSAGGS [r16_198_JUSTAS]	0.0166 ± 0.31
SAGGSAGGSAGGGLEEIKEAIKKLPENVKEITIKLKDGSTIKIRVEKDKDGKYKITIEPSAGGSAGGSAGGS [r10_1017_TrROS_Hall]	2.68 ± 0.15
SAGGHHHHHHHHIDGKFRSEEEAKKLKEEIEKELRAKGYTDIEVEVEVKVEEPPPRRPRPGSPAYTLGSAGG [r13_6_JUSTAS]	0.573 ± 0.11
SAGGSAGGSKVLIIEPEENKELAEKIAKELKEKGELGEVEIKTFSSPEEAKEYAKNYDIVITGSAGGSAGGS [r12_679_TrMRF]	0.528 ± 0.17
SAPPETVEVEEVAEFELADGSKVTVAKVKLPNGETLVVVTVYNKDGEPVATFVVREGDPDALAEALKALSSA [r9_1069_TrROS_Hall]	4.56 ± 0.095
SAGGSAGGSAGGSEGAPIRVTLTGTRTETRTRPDGSPVTDSGTDTVEFTLDLYDPEKSGSAGGSAGGSAGGS [r4_450_TrMRF]	-0.0249 ± 0.13
SAGGSAGGGWITIPIYIIKMKRTRRDPDGKPKPLDPNDPEDFEVVPPRPFRIPLPPEEAKKLLKSAGGSAGG [r6_219_TrROS]	-0.464 ± 0.43
SAGGMPPVVLEYEIDIKPDPNETLEDVLEKAEEFVEELKEAFPELDLKEVKVEVDPEKGKVKITVVFPSAGG [r13_1011_TrMRF]	1.95 ± 0.14
SAGKVIVIDAEEMTEEELKEILKKTKPGEKILIIAKSKEVAEKLKELGFEVEEVEKVPLTEEELKKLKKSAG [r5_354_TrROS_Hall]	1.27 ± 0.028
SAGGSALYIPPGTEHTVLIKLKDDDRYYEAKVTRVYPTSIEVEVEDPLTGEKKRYTINATDIELGDSAGGSA [r15_381_TrMRF]	2.24 ± 0.07
SAGGKIKIVLSAEELEKKFGKSIEELAAELAKKLFPNKKVKVKKVKIEKDENGKEKLYVEVEIEPEKPSAGG [r13_723_TrROS_Hall]	3.2 ± 0.073
SAGGSAGGSAGGNIEVLPIPDGYWVIKIPDGRIMVFNPGRGEFEPIPIENVTIEPVRPGDSAGGSAGGSAGG [r7_656_TrROS]	0.929 ± 0.055
SAGKKKKKKLKITIEITYNKETNTVTIKITVDGKEITVEVKAKSKEEALLNALKELEKKLNIKIKEVKLSAG [r5_251_TrROS_Hall]	2.1 ± 0.18
